Reference: doi:10.1101/655282
Where no end group is shown, it is not given here. [ ]: non-standard residue; d: D form. pS = N[C@@H](COP(=O)(O)O)C(=O)O

Biological target: SUMO1 (UniProt P63165)
Chain of UniProt P63165 (P63165 1-97): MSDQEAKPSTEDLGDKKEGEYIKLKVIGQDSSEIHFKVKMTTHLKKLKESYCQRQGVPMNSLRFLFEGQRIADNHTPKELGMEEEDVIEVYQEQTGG

| Binder | rate of increase in anisotropy, real-time SUMOylation assay with SUMO1 [min⁻¹] |
| --- | --- |
| PLIKQEDIKPEPDFTIQYRNKIIDTAGCIVISDSEEEQG (also: FITC label, site not given here) [IE2 N-Terminal Domain (IE2-NTD), FITC labelled] | 0.00012 |
| PLIKQEDIKPEPDFTIQYRNKIIDTAGCIVI[pS]D[pS]EEEQG (also: FITC label, site not given here) [phosphorylated IE2-NTD (IE2-ppNTD)] | 0.00021 |
